Where two headings read alike, the source gives them in different places.
Legend:
[1] = molecular target: SARS-CoV-2 spike protein WT (SARS-CoV-2 (WT)) (UniProt P0DTC2); assay: competition ELISA
[2] = molecular target: SARS-CoV-2 spike protein WT (SARS-CoV-2 (WT)) (UniProt P0DTC2)
[3] = molecular target: SARS-CoV-2 spike protein WT (SARS-CoV-2 (WT)) (UniProt P0DTC2); remark: listed apart in the source
[4] = molecular target: SARS-CoV-2 spike protein WT (SARS-CoV-2 (WT)) (UniProt P0DTC2); remark: listed apart in the source

Sequence | binding signal (% spike still bound to hACE2) [1] | Kd [2] [nM] | Kd [3] [nM] | Kd [4] [nM]
CGCAGCACCCAAGAACAAGGACTGCTTAGGATTGCGATAGGTTCGGAAAAAAAAAAAAAAAAGGCGGGTTCCTAGACTTGTACTCAGCCT [S1B6C3-A15-S2A2C1] | 12 | – | – | –
CGCAGCACCCAAGAACAAGGACTGCTTAGGATTGCGATAGGTTCGGAAAAAAGGCGGGTTCCTAGACTTGTACTCAGCCT [S1B6C3-A5-S2A2C1] | 8 | 34.6 | 35.8 | –
CGCAGCACCCAAGAACAAGGACTGCTTAGGATTGCGATAGGTTCGGTTTTTTTTTTTTTTTAGGCGGGTTCCTAGACTTGTACTCAGCCT [S1B6C3-T15-S2A2C1] | 24 | – | – | 46.1
AGGCGGGTTCCTAGACTTGTACTCAGCCTTTTTTTTTTTTTTTTCGCAGCACCCAAGAACAAGGACTGCTTAGGATTGCGATAGGTTCGG [S2A2C1-T15-S1B6C3] | – | – | – | 61.4

— publication PMC9330529
